The target of assay [1] is Gp120 (HIV). Kind of assay: direct ELISA; direct ELISA. A general note: ELISA stands for enzyme-linked immunosorbent assay.
For assay [2], the target named is Gp120 (HIV). Kind of assay: indirect ELISA; indirect ELISA.
In assay [3] the target is Gp120 (HIV). Description: ELISA.

The results in this text go back to patent US20220289798A1 (published 2022).

B1: NK 20K Direct (other)
chain: MKSLTHRRFGGSGGSPFSGLSSIAVRSGSYLDAIIIDGVHHGGSGGNLSPTFTFGSGEYISNMTIRSGDYIDNISFETNQGRRFGPYGGSGGSANTLSNVRVIQINGSAGDYLDSLDIYYEQY
modifications: 20,000 MW PEG coupled by NHS ester to a primary amine. The intended site is the added N-terminal Lys, pos 2, written K; the N-terminal amine is also possible. At least one PEG per dimer. The exact site and number of PEGs are not determined.
A word on the EC50: it is the concentration needed to bring the measured effect to its halfway point. B1 gave a half-maximal effective concentration (EC50) with Gp120 [1] of 0.0173 ng/mL.

B2: NK 20K (other)
chain: MKSLTHRRFGGSGGSPFSGLSSIAVRSGSYLDAIIIDGVHHGGSGGNLSPTFTFGSGEYISNMTIRSGDYIDNISFETNQGRRFGPYGGSGGSANTLSNVRVIQINGSAGDYLDSLDIYYEQY
modifications: 20,000 MW PEG coupled by NHS ester to a primary amine. The intended site is the added N-terminal Lys, pos 2, written K; the N-terminal amine is also possible. At least one PEG per dimer. The exact site and number of PEGs are not determined.
On to B2, for which, in the assay with Gp120 [2], the 50% effective concentration (EC50) is 26.4 ng/mL.

B3: NK 2K Direct (other)
chain: MKSLTHRRFGGSGGSPFSGLSSIAVRSGSYLDAIIIDGVHHGGSGGNLSPTFTFGSGEYISNMTIRSGDYIDNISFETNQGRRFGPYGGSGGSANTLSNVRVIQINGSAGDYLDSLDIYYEQY
modifications: 2,000 MW PEG coupled by NHS ester to a primary amine. The intended site is the added N-terminal Lys, pos 2, written K; the N-terminal amine is also possible. At least one PEG per dimer. The exact site and number of PEGs are not determined.
In the assay with Gp120 [1], B3 showed a 50% effective concentration (EC50) of 0.0875 ng/mL.

B4: NK (other)
chain: MKSLTHRRFGGSGGSPFSGLSSIAVRSGSYLDAIIIDGVHHGGSGGNLSPTFTFGSGEYISNMTIRSGDYIDNISFETNQGRRFGPYGGSGGSANTLSNVRVIQINGSAGDYLDSLDIYYEQY
With B4, in the assay with Gp120 [3], the concentration for a half-maximal effect (EC50) worked out at 15 ng/mL.

B5: NK 2K (other)
chain: MKSLTHRRFGGSGGSPFSGLSSIAVRSGSYLDAIIIDGVHHGGSGGNLSPTFTFGSGEYISNMTIRSGDYIDNISFETNQGRRFGPYGGSGGSANTLSNVRVIQINGSAGDYLDSLDIYYEQY
modifications: 2,000 MW PEG coupled by NHS ester to a primary amine. The intended site is the added N-terminal Lys, pos 2, written K; the N-terminal amine is also possible. At least one PEG per dimer. The exact site and number of PEGs are not determined.
As for B5, the results for the concentration giving a half-maximal response (EC50) with Gp120 [3] and with Gp120 [2] were 60.8 ng/mL and 7.45 ng/mL, respectively.

B6: CK 20K (other)
chain: MSLTHRRFGGSGGSPFSGLSSIAVRSGSYLDAIIIDGVHHGGSGGNLSPTFTFGSGEYISNMTIRSGDYIDNISFETNQGRRFGPYGGSGGSANTLSNVRVIQINGSAGDYLDSLDIYYEQYK
modifications: 20,000 MW PEG coupled by NHS ester to a primary amine. The intended site is the added C-terminal Lys, pos 123, written K. At least one PEG per dimer. The exact site and number of PEGs are not determined.
With B6, the values for the EC50 with Gp120 [3] and in the assay with Gp120 [2] were 90.5 ng/mL and 14.1 ng/mL, respectively.

B7: CK 20K Direct (other)
chain: MSLTHRRFGGSGGSPFSGLSSIAVRSGSYLDAIIIDGVHHGGSGGNLSPTFTFGSGEYISNMTIRSGDYIDNISFETNQGRRFGPYGGSGGSANTLSNVRVIQINGSAGDYLDSLDIYYEQYK
modifications: 20,000 MW PEG coupled by NHS ester to a primary amine. The intended site is the added C-terminal Lys, pos 123, written K. At least one PEG per dimer. The exact site and number of PEGs are not determined.
In turn, B7 showed a concentration for a half-maximal effect (EC50) in the assay with Gp120 [1] of 0.029 ng/mL.

B8: CK (other)
chain: MSLTHRRFGGSGGSPFSGLSSIAVRSGSYLDAIIIDGVHHGGSGGNLSPTFTFGSGEYISNMTIRSGDYIDNISFETNQGRRFGPYGGSGGSANTLSNVRVIQINGSAGDYLDSLDIYYEQYK
B8 returned a concentration for a half-maximal effect (EC50) in the assay with Gp120 [3] of 10.5 ng/mL.

B9: Q 20K (other)
chain: MSLTHRKFGGSGGSPFSGLSSIAVRSGSYLDAIIIDGVHHGGSGGNLSPTFTFGSGEYISNMTIRSGDYIDNISFETNQGRRFGPYGGSGGSANTLSNVKVIQINGSAGDYLDSLDIYYEQY
modifications: 20,000 MW PEG coupled by NHS ester to a primary amine. The candidate sites are Lys pos 7 and Lys pos 100, both written K. At least one PEG per dimer. The exact site and number of PEGs are not determined.
Consider B9, for which the concentration giving a half-maximal response (EC50) in the assay with Gp120 [3] came out at 33.6 ng/mL; in the assay with Gp120 [2], 16.3 ng/mL.

B10: Q 20K Direct (other)
chain: MSLTHRKFGGSGGSPFSGLSSIAVRSGSYLDAIIIDGVHHGGSGGNLSPTFTFGSGEYISNMTIRSGDYIDNISFETNQGRRFGPYGGSGGSANTLSNVKVIQINGSAGDYLDSLDIYYEQY
modifications: 20,000 MW PEG coupled by NHS ester to a primary amine. The candidate sites are Lys pos 7 and Lys pos 100, both written K. At least one PEG per dimer. The exact site and number of PEGs are not determined.
On to B10, for which, in the assay with Gp120 [1], the EC50 worked out at 0.0355 ng/mL.

B11: M78K2K Rx Direct (other)
chain: MSLTHRRFGGSGGSPFSGLSSIAVRSGSYLDAIIIDGVHHGGSGGNLSPTFTFGSGEYISNMTIRSGDYIDNISFETNKGRRFGPYGGSGGSANTLSNVRVIQINGSAGDYLDSLDIYYEQY
modifications: chain 1 pos 79: Lys carrying 2,000 MW PEG by NHS-ester amine coupling, written K. It is the only lysine in the chain. At least one PEG per dimer. The exact site and occupancy were not measured.
As for B11, a half-maximal response with Gp120 [1] (EC50) required 0.332 ng/mL.

B12: M78K 2K (other)
chain: MSLTHRRFGGSGGSPFSGLSSIAVRSGSYLDAIIIDGVHHGGSGGNLSPTFTFGSGEYISNMTIRSGDYIDNISFETNKGRRFGPYGGSGGSANTLSNVRVIQINGSAGDYLDSLDIYYEQY
modifications: chain 1 pos 79: Lys carrying 2,000 MW PEG by NHS-ester amine coupling, written K. It is the only lysine in the chain. At least one PEG per dimer. The exact site and occupancy were not measured.
For B12, the EC50 with Gp120 [3] amounted to 33.8 ng/mL; in the assay with Gp120 [2] it was 10.9 ng/mL.

B13: M78K20K Rx (other)
chain: MSLTHRRFGGSGGSPFSGLSSIAVRSGSYLDAIIIDGVHHGGSGGNLSPTFTFGSGEYISNMTIRSGDYIDNISFETNKGRRFGPYGGSGGSANTLSNVRVIQINGSAGDYLDSLDIYYEQY
modifications: chain 1 pos 79: Lys carrying 20,000 MW PEG by NHS-ester amine coupling, written K. It is the only lysine in the chain. At least one PEG per dimer. The exact site and occupancy were not measured.
Take B13: the concentration giving a half-maximal response (EC50) with Gp120 [1] turned out to be 0.0624 ng/mL.

B14: Q (other)
chain: MSLTHRKFGGSGGSPFSGLSSIAVRSGSYLDAIIIDGVHHGGSGGNLSPTFTFGSGEYISNMTIRSGDYIDNISFETNQGRRFGPYGGSGGSANTLSNVKVIQINGSAGDYLDSLDIYYEQY
In the assay with Gp120 [3], B14 registered an EC50 of 8.38 ng/mL.

B15: M78K 20K (other)
chain: MSLTHRRFGGSGGSPFSGLSSIAVRSGSYLDAIIIDGVHHGGSGGNLSPTFTFGSGEYISNMTIRSGDYIDNISFETNKGRRFGPYGGSGGSANTLSNVRVIQINGSAGDYLDSLDIYYEQY
modifications: chain 1 pos 79: Lys carrying 20,000 MW PEG by NHS-ester amine coupling, written K. It is the only lysine in the chain. At least one PEG per dimer. The exact site and occupancy were not measured.
In the case of B15, the EC50 amounted to 304 ng/mL in the assay with Gp120 [3] and 19.2 ng/mL in the assay with Gp120 [2].

B16: M78K (other)
chain: MSLTHRRFGGSGGSPFSGLSSIAVRSGSYLDAIIIDGVHHGGSGGNLSPTFTFGSGEYISNMTIRSGDYIDNISFETNKGRRFGPYGGSGGSANTLSNVRVIQINGSAGDYLDSLDIYYEQY
B16 yielded an EC50 with Gp120 [3] of 11.1 ng/mL.
